Measured values as given in PMC32300.
Values belong to the substance of their own block, whether it stands above or below them.

Tests used:
[1] = target: RPTPα-200-XFP (RPTPα-200-CFP and RPTPα-200-YFP); experiment: cross-linking
[2] = target: RPTPα-516-XFP (RPTPα-516-CFP and RPTPα-516-YFP); experiment: FRET or BRET
RPTPα-P137C [3] = experiment: cross-linking
RPTPα-P137C [4] = experiment: non-reducing SDS-PAGE
[5] = target: RPTPα-P137C-XFP (RPTPα-P137C-CFP and RPTPα-P137C-YFP); experiment: FRET or BRET
[6] = target: full length RPTPα-XFP (RPTPα-CFP and RPTPα-YFP); experiment: cross-linking
[7] = target: full length RPTPα-XFP (RPTPα-CFP and RPTPα-YFP); experiment: FRET or BRET

Chain of RPTPα-200-XFP (RPTPα-200-CFP and RPTPα-200-YFP) (P18052 20-829): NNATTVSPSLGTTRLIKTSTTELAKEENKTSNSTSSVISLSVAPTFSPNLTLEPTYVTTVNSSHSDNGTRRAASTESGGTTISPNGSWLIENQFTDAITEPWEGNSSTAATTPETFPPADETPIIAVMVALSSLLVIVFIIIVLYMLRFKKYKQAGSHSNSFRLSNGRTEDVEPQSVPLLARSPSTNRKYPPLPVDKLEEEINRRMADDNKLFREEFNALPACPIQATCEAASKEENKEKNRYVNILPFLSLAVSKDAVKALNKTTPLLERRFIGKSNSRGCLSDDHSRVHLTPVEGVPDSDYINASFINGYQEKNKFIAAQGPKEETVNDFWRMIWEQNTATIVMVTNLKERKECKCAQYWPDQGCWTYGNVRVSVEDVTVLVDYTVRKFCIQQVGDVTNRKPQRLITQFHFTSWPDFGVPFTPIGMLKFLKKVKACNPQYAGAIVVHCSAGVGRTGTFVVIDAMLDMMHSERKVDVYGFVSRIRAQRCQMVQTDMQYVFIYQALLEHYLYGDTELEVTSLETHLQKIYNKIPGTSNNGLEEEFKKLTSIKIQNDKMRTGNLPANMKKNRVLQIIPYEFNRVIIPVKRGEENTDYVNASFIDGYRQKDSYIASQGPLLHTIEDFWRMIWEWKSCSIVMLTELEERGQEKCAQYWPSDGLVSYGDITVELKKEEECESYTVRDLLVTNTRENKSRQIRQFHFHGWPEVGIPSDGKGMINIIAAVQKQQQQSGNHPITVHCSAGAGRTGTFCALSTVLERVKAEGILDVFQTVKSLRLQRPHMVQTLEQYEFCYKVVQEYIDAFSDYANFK
Chain of RPTPα-516-XFP (RPTPα-516-CFP and RPTPα-516-YFP) (P18052 20-829): as above

Substance: RPTPα-516-XFP (RPTPα-516-CFP and RPTPα-516-YFP) (domain or fragment)
F(440)/F(490) ratio [2]: 0.46

Substance: RPTPα-P137C (receptor)
percent cross-linked by BS3 (RPTPα-P137C [3]): < 10% | percent in the dimeric form (RPTPα-P137C [4]): > 80%

Substance: RPTPα-P137C-XFP (RPTPα-P137C-CFP and RPTPα-P137C-YFP) (receptor)
F(440)/F(490) ratio [5]: 0.5

Results, then the substance that gave them:

stoichiometry N [1]: 2
Substance: RPTPα-200-XFP (RPTPα-200-CFP and RPTPα-200-YFP) (domain or fragment)

stoichiometry N [6]: 2 | CFP fluorescence lifetime (τφ) [7]: 2.2 ns
Substance: full length RPTPα-XFP (RPTPα-CFP and RPTPα-YFP) (receptor)
